FireProtDB (doi:10.1038/12277)

Conditions: Escherichia coli (strain K12), pH 5.5, CD, Potassium phosphate 2 mM, KF 5 mM, reversible: yes, whole UniProt chain shown

B1: Ribonuclease HI wild type, P0A7Y4 (protein)
chain: MLKQVEIFTDGSCLGNPGPGGYGAILRYRGREKTFSAGYTRTTNNRMELMAAIVALEALKEHCEVILSTDSQYVRQGITQWIHNWKKRGWKTADKKPVKNVDLWQRLDAALGQHQIKWEWVKGHAGHPENERCDELARAAAMNPTLEDTGYQVEV
25 °C, Urea
  denaturant m value: 2.1 kcal/mol/M
  unfolding free energy: 9.7 kcal/mol
Thermal
  Tm: 47.8 °C
